Measurements as given in article PMC7338394.

B1: truncated Myc-tagged DIX domain of DVL2 [human] / Dishevelled-2 (DVL2), full-length, Flag-tagged [human] (parent)
chain 1: VGETKVIYHLDEEETPYLVKIPVPAERITLGDFKSVLQRPAGAKYFFKSMDQDFGVVKEEISDDNARLPCFNGRVVSWLVSSD
chain 2: MAGSSTGGGGVGETKVIYHLDEEETPYLVKIPVPAERITLGDFKSVLQRPAGAKYFFKSMDQDFGVVKEEISDDNARLPCFNGRVVSWLVSSDNPQPEMAPPVHEPRAELAPPAPPLPPLPPERTSGIGDSRPPSFHPNVSSSHENLEPETETESVVSLRRERPRRRDSSEHGAGGHRTGGPSRLERHLAGYESSSTLMTSELESTSLGDSDEEDTMSRFSSSTEQSSASRLLKRHRRRRKQRPPRLERTSSFSSVTDSTMSLNIITVTLNMEKYNFLGISIVGQSNERGDGGIYIGSIMKGGAVAADGRIEPGDMLLQVNDMNFENMSNDDAVRVLRDIVHKPGPIVLTVAKCWDPSPQAYFTLPRNEPIQPIDPAAWVSHSAALTGTFPAYPGSSSMSTITSGSSLPDGCEGRGLSVHTDMASVTKAMAAPESGLEVRDRMWLKITIPNAFLGSDVVDWLYHHVEGFPERREARKYASGLLKAGLIRHTVNKITFSEQCYYVFGDLSGGCESYLVNLSLNDNDGSSGASDQDTLAPLPGATPWPLLPTFSYQYPAPHPYSPQPPPYHELSSYTYGGGSASSQHSEGSRSSGSTRSDGGAGRTGRPEERAPESKSGSGSESEPSSRGGSLRRGGEASGTSDGGPPPSRGSTGGAPNLRAHPGLHPYGPPPGMALPYNPMMVVMMPPPPPPVPPAVQPPGAPPVRDLGSVPPELTASRQSFHMAMGNPSEFFVDVM

Variants of: B1
Assay: Co-IP (IP: Flag, immunoblot for Myc-DIX) with densitometry
Details: with Dishevelled-2 (DVL2), HEK293T cells, co-immunoprecipitated DIX levels normalized to immunoprecipitated DVL2 levels, three independent experiments, parent: 4.7, read off a plot

| response | Variant |
| --- | --- |
| 1.1 | chain 1 K58R |
